Test results reported in ChEMBL document CHEMBL2074141, “Comparison of lactate transport in astroglial cells and monocarboxylate transporter 1 (MCT 1) expressing Xenopus laevis oocytes. Expression of two different monocarboxylate transporters in astroglial cells and neurons” (J Biol Chem, 1997).

Substrate: C[C@@H](O)C(=O)O
Experiment: TP_TRANSPORTER: uptake in Xenopus laevis oocytes
Type: functional, cell-based
Conditions: Oocyte

B1: Monocarboxylate transporter 1 (Rattus norvegicus), P53987 (protein)
chain: MPPAIGGPVGYTPPDGGWGWAVVVGAFISIGFSYAFPKSITVFFKEIEIIFSATTSEVSWISSIMLAVMYAGGPISSILVNKYGSRPVMIAGGCLSGCGLIAASFCNTVQELYFCIGVIGGLGLAFNLNPALTMIGKYFYKKRPLANGLAMAGSPVFLSTLAPLNQAFFGIFGWRGSFLILGGLLLNCCVAGSLMRPIGPQQGKVEKLKSKESLQEAGKSDANTDLIGGSPKGEKLSVFQTVNKFLDLSLFTHRGFLLYLSGNVVMFFGLFTPLVFLSNYGKSKHFSSEKSAFLLSILAFVDMVARPSMGLAANTRWIRPRVQYFFAASVVANGVCHLLAPLSTTYVGFCIYAGVFGFAFGWLSSVLFETLMDLVGPQRFSSAVGLVTIVECCPVLLGPPLLGRLNDMYGDYKYTYWACGVILIIAGLYLFIGMGINYRLVAKEQKAEEKKRDGKEDETSTDVDEKPKKTMKETQSPAPLQNSSGDPAEEESPV
B1 showed a Km of 5.6 mM.
